# Source: the supplement of paper PMC10126150
# ± gives the standard deviation of the averaged measurements.
# Tested on: ATP
# Experiment: switch fluorescence ratio, 500 uM ATP over buffer (Cy3 cluster intensity, sum of 5 cycles each) (fold (ratio)); higher = stronger signal-on switching upon ATP binding; sequences stand for … in TCGTCGGCAGCGTCAGATGTGTATAAGAGACAGTTTTTTTTTTTTTTTTTTTTTTTTT…TC
# Conditions: aptamer strand: ATP DNA aptamer (quencher-CACCTGGGGGAGTATTGCGGAGGAAGG + anchor), 100 nM annealed; ATP concentration: 500 uM
# How it was run: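 The quencher-labelled ATP aptamer, at 100 nM, was annealed to Cy3-labelled switching-strand clusters on a modified Illumina MiSeq flow-cell. The clusters were imaged in selection buffer, then after 15 min with 500 uM ATP at 22 °C, and this buffer/ATP cycle ran five times with NaOH stripping and re-annealing between runs. Per-cluster fluorescence ratios, summed target-cycle over summed buffer-cycle Cy3 intensity, were averaged per switch-domain sequence. Clusters outside 100-1000 RFU were excluded.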
# 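Further: ATP exposure 15 min at 22 °C before imaging.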
row,Sequence,switch fluorescence ratio
1,TTCCGGAAGT,1.04 ± 0.04
2,TTCGTACAT,1.13 ± 0.22
3,CGGGGGGCAT,0.994 ± 0.022
4,GTCGGACTAG,1 ± 0.051
5,GGAGTTGCAG,0.975 ± 0.063
6,TTCACGGCCT,1.03 ± 0.018
7,TTCTTAAAAG,1.02 ± 0.028
8,ATTTTAGAGC,1.05 ± 0.038
9,TTTCCACAGG,1.396 ± 0.0082
10,GCAGAGTGGA,0.9976 ± 0.003
11,AGAAAAATGC,1.04 ± 0.088
12,GCCGAAGTCG,1.02 ± 0.025
13,GATTTGACG,1.04 ± 0.056
14,AACGGCGCTA,1.045 ± 0.0057
15,GAGTGGGGGG,0.976 ± 0.043
16,ACGGCGAGAG,1.06 ± 0.03
17,GTATGCGGGG,0.996 ± 0.02
18,CATAATTGCT,1.01 ± 0.0059
19,AATCGGCGTC,1.08 ± 0.15
20,GCTAGAAGTA,1.02 ± 0.049
21,TTAGACGGGT,0.982 ± 0.0043
22,TTAGTAAAGG,1.01 ± 0.041
23,AACCTCTTAG,0.992 ± 0.026
24,TATTATATTA,1.02 ± 0.019
25,GTAGGGCATG,0.96 ± 0.026
26,TTGGGGGAAG,0.981 ± 0.026

row,Sequence,switch fluorescence ratio
1,ACGGTCCGGG,1.06 ± 0.036
2,AGGTTGTTGG,0.966 ± 0.016
3,AAGAGGGGT,0.9904 ± 0.0048
4,AATGGGAAAT,0.968 ± 0.059
5,CCTCATGCCA,2.3 ± 0.11
6,GCCCTTTTAA,0.982 ± 0.016
7,GGTATTGGAG,0.984 ± 0.015
8,ATGGCCCGGC,1.03 ± 0.017
9,AATTGTTTTT,1 ± 0.021
10,AAATGATAAG,0.998 ± 0.021
11,TAACGGAGT,1.01 ± 0.015
12,TCGCGCCCTG,1.03 ± 0.043
13,CCCAGGACGC,1.397 ± 0.0036
14,TTGGTTCACC,0.955 ± 0.029
15,CAGGGATTAG,1.01 ± 0.044
16,TAGACAAGAT,1.04 ± 0.0028
17,ATATTATGGA,1 ± 0.02
18,ATTTATTCCG,1.01 ± 0.032
19,CCCCGACTTT,1.07 ± 0.018
20,ACTATGTGTA,0.989 ± 0.014
21,GAAATTATTA,0.9919 ± 0.0075
22,GAGACAATTC,1.06 ± 0.017
23,TACAAGTCGA,1.016 ± 0.0042
24,GTGTTAGTTA,1.01 ± 0.011
25,GGGGAAAGCG,1 ± 0.026
26,CACGGGGGAT,1.03 ± 0.011

row,Sequence,switch fluorescence ratio
1,GGGGAGCCGT,1.03 ± 0.086
2,GCGACATAGG,0.964 ± 0.042
3,TTTATTTGGA,1.018 ± 0.0012
4,TTACTTTTTC,1.01 ± 0.011
5,TTCGGACCTT,1.21 ± 0.021
6,CGGTTATGGC,0.978 ± 0.019
7,ATCTGTGGGG,0.9962 ± 0.0026
8,TTGCCGTGTT,1.02 ± 0.016
9,CGAGGTTGAC,1.0385 ± 0.00054
10,TAGAGGCCGG,1 ± 0.003
11,ACCGTGTTAT,0.9583 ± 0.0037
12,TTTGTACGGG,0.999 ± 0.036
13,TTGGGGACTC,1 ± 0.026
14,GATATGGGCA,1.04 ± 0.037
15,ATGTTTAGAA,0.9607 ± 0.0073
16,GCTCTGTTTT,1 ± 0.011
17,TTTTGGCTGT,1.09 ± 0.25
18,GCGGGGTTTT,1.01 ± 0.029
19,GGACTTCCTG,1.003 ± 0.0065
20,GCGCATTGTT,1.026 ± 0.0094
21,ACCGGTGCTG,0.98 ± 0.042
22,GGTTCATTCT,0.9917 ± 0.0062
23,TCTATAGTTC,1.01 ± 0.034
24,AGGTTGGACT,0.99145 ± 0.00056
